Sequences and labels used below:
B1: F4 phage display single-chain antibody (scFv, part only; not given: scFv linker, phage partner, tag, V domains shown, not shown: another chain or arm of the molecule; large carriers; small tags and cut ends)
VH: QVQLKQSGAELVKPGASVKMSCKASGDTFPRYNMHWLKQTPGQGLEWIGAIFPGNGETSYNQNFKGKATLTADKSSSTAYMQLNSLTSEDSAVYYCARNSYYDYAWFTYWGQGTLVTVSA
VL: DIVMTQSPASLDVSLGQRATISCRASKSVSSSGYSFMHWYQQKPGQPPKLLISLASNLESGVPARFSGSGSGTDFTLTIYPVEEEDAATYYCQHSREFPPTFGSGTKLEIK
B2: B1 phage display single-chain antibody (scFv, part only; not given: scFv linker, phage partner, tag, V domains shown, not shown: another chain or arm of the molecule; large carriers; small tags and cut ends)
VH: QVQMQQSGAELVKPGASVMMSCKASGYTFTTYNIHWIKQTPGQGLEWIGDIYPGNGDASYNQKFRDRATLTADRSSSTAYLQLSSLTSEDSAIYYCATFSRFDGWFAYWGQGTLVTVSA
VL: DIVMSQSPASLAVSLGQRATISCRASRSVSTSGYSYMHWYQQKPGQPPKLLIYLASNLESGVPARFSGSGSGTNFTLNIHPVEEEDAATYYCQHSRELPYTFGGGTKLEIK
B3: B7 phage display single-chain antibody (scFv, part only; not given: linker; VH end may be cut, part only)
scFv, part: QIQLVQSGPELKKPGETVKISCKTSGYTFTNYGMNWVRQAPGKGLKWMGWINTYTGEPTYADDFKGRFAFSLETSAGTAYLQINNLENEDTATYFCARGDSFTTEILRNWYFDVWGAGTTDIQMTQTPASLSASVGETVTITCGASENIYGALNWYQRKQGKSPQLLIYGATNLADGMSSRFSGSGSGRQYSLKISSLHPDDVATYYCQNVLSTPWTFGGGTKLEMK

In this test the target is His-tagged CD70 protein extracellular domain (His-TNC-CD70) (human). Briefly: phage ELISA, 2 ug/mL His-TNC-CD70 coated, anti-M13-HRP. On the technique in general: ELISA stands for enzyme-linked immunosorbent assay.
His-tagged CD70 protein extracellular domain (His-TNC-CD70) (human), sequence (chain, as listed by the source limits assumed): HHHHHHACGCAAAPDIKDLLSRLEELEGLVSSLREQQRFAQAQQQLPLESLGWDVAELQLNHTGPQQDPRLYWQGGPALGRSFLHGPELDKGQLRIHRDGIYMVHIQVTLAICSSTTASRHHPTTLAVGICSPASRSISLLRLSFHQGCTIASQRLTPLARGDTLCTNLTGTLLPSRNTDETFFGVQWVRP
B1 had a Reading at OD450 nm of microplate reader of 1.09 OD450.
The same measure for B2: 1.16 OD450.
With B3, the Reading at OD450 nm of microplate reader amounted to 1.97 OD450.

The values above are taken from patent publication US20230257472A1.
